According to paper PMC9706453, “Abscisic acid-responsive transcription factors PavDof2/6/15 mediate fruit softening in sweet cherry”:

Legend:
Assay in all cases: EMSA; Light Shift Chemiluminescent EMSA Kit (Beyotime); buffer, salt, pH and temperature not stated
Conditions in all cases: protein: recombinant; tags: His (pET-30a(+)); label: biotin
PavDof15 = biological target: T1, PavDof15 (Prunus avium (sweet cherry), UniProt A0A6P5S8Z2 1-327)
T1 sequence: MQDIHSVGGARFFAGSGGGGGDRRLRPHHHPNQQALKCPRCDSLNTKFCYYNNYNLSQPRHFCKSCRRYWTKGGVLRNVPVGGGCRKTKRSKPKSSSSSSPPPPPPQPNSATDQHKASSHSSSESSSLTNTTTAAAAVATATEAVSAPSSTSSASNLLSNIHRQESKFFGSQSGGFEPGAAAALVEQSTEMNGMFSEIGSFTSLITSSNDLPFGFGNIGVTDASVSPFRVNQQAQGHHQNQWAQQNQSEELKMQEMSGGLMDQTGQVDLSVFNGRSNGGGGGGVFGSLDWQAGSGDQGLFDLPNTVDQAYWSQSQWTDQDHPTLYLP

PavDof6 = biological target: T2, PavDof6 (Prunus avium (sweet cherry), UniProt A0A6P5RUY3 1-310)
T2 sequence: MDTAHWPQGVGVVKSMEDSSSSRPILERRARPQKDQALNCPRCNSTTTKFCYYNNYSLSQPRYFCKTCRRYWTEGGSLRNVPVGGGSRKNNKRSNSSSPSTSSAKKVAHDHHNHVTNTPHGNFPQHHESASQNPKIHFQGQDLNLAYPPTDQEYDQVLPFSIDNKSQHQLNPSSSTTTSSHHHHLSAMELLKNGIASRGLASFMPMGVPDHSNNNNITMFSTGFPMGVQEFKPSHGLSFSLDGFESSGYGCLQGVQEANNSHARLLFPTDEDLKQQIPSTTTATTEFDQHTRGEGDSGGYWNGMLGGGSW

PavDof2 = biological target: T3, PavDof2 (Prunus avium (sweet cherry), UniProt A0A6P5T378 1-263)
T3 sequence: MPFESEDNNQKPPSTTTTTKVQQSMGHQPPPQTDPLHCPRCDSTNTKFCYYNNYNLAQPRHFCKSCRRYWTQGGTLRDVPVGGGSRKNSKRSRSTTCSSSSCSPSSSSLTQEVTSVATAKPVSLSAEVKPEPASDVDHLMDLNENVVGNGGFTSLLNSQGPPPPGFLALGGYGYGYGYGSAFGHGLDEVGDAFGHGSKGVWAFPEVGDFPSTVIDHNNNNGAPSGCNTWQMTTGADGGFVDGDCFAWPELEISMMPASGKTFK

Measured: binding result

B1: PavPL18 promoter probe (dsDNA)
DNA 1: CATAAAAAGAAATAAAATGAAAAGAAAAGTGA
DNA 2: TCACTTTTCTTTTCATTTTATTTCTTTTTATG
binds: all assays above

B2: PavNCED1 promoter probe (Dof site) (dsDNA)
DNA 1: CTCAAAAGCTAGTTATATGGAAAAAGGGA
DNA 2: TCCCTTTTTCCATATAACTAGCTTTTGAG
binds: all assays above

B3: PavPME44 promoter probe (dsDNA)
DNA 1: CTGCTTTTCTGAAAATTAAAGCAGTTTGGAGAAAAGTCC
DNA 2: GGACTTTTCTCCAAACTGCTTTAATTTTCAGAAAAGCAG
binds: all assays above

B4: PavXTH26 promoter probe (dsDNA)
DNA 1: AACATTCTTTTTGTAAATCAAGTAGTTAAAAGCATTTAC
DNA 2: GTAAATGCTTTTAACTACTTGATTTACAAAAAGAATGTT
binds: all assays above

B5: PavXTH31 promoter probe (dsDNA)
DNA 1: TGCTTTTTTTTTTTTAAAGGATT
DNA 2: AATCCTTTAAAAAAAAAAAAGCA
binds: all assays above

B6: PavQRT3 promoter probe (dsDNA)
DNA 1: TTGAAAAGTTAGGAAAAAAGTTT
DNA 2: AAACTTTTTTCCTAACTTTTCAA
binds: all assays above
